The values that follow come from US20200318093A1.

Data set [1] concerns the target casein sodium ("MIPRODAN", Nippon Shinyaku). The experiment in a line: cell-based or functional assay.
Data set [2] has as its target porcine-derived acidic gelatin (Sigma).
Data set [3] has as its target bovine-derived alkaline gelatin (Sigma).
In data set [4] the target is Rice proteins.
In data set [5] the target is casein sodium ("MIPRODAN", Nippon Shinyaku).
Data set [6] concerns the target milk whey protein ("BiPro", Davisco).
For data set [7], the target named is α-lactalbumin (Sigma).
In data set [8] the target is cornmeal gluten (Sigma).
Data set [9] has as its target Soybean proteins.
Data set [10] concerns the target fish-derived gelatin (Nippi).
For data set [11], the target named is skim milk powder (Yotsuba Milk Products, low heat type).
For data set [12], the target named is T1, ovalbumin (Sigma), P01012.
T1 chain: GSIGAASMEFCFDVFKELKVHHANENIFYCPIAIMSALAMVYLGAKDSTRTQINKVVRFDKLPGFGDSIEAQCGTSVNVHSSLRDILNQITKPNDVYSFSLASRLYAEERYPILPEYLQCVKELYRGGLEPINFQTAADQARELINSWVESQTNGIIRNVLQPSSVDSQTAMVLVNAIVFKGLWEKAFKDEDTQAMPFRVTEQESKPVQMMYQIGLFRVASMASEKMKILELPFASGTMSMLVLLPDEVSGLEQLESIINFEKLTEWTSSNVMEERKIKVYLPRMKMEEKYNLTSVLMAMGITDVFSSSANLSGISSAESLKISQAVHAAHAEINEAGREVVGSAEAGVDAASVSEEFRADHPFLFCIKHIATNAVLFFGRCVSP

The target in data set [13] is α-casein (Sigma).
In data set [14] the target is casein sodium ("MIPRODAN", Nippon Shinyaku). Kind of data set: cell-based or functional assay. The source holds these as a separate data set.
Data set [15] deals with Insulin B chain (Sigma).

In the case of “protein asparaginase of Leifsonia xyli AJ111071 (NITE P-01649) (enzyme)”, the released ammonia (3 h reaction with culture supernatant, control subtracted) in data set [1] was 0.289 mM.

B1: protein asparaginase of Luteimicrobium album AJ111072 (NITE P-01650) (protein)
chain: AVTADDGSTPGTAAYLEDDYDFGDQAVPLANIGGIRGEMTGRIYLPTTAGAHPTVILLHGRHSSCTVPTGGGSVSNPNRWPCIAPQVNIPSYKGYESTAQNLATHGYAVVSISANAINANDNQLAPDYGAQARGQLVLDTLAMLRKANAGEPVSFHDAATDRTVDLASALAVSTEAEDLGSAPTSATNPGDAITPADLVGAFDLDDVGLMGHSRGGEGVVSAVNLNQKLAKPFGIKSVLPLAPVDFGRETAADTNMLVILPYCDGDVSNQQGQHFSDDSRYAYDDDSLRSTLWVMGADHNFFNSVWTPGKYPLSTSDDWGATSTDAVCGPLAPTNVRLSADDQYDVGVAVMSAWFRLTLGGEDQFLPLFDGSADPTLTSVPSAKLWSTATAPATKRADIEAFTANTSRVRVYGSATESVCASAGGRTLPQDAQPCATASALRSTSAMPHWTPASFAPNVPASPMGRFLWTSVSGSTAGSIRVTVPAAARDASEQDALTFKTAPDESVLTGTDLTVTVVDGHGATWSSAVSALNAGAVKRLPISGSTTLNKIVLQQVSVPVSTLAGSIDVSDVREVRFAGATGADGTATGGAYLSDLAFVSSGVGTVAGIASVPTVNVASTVVEEGSSVDEARVAVVLDQPADRTVSAWFTLMGSTADSSNAGLAAQKVTFQPGQTCQAVTVTILGNTVAGAAATTAYKADVSAPDGVIVGAAQFGTFTVREDDALTSGGALAPAVGTQGDVCAEYAARSVVQELTTSGDAVAGSHVTLTGSGYRVGESVAFTDGDAVLGTVLAGADGTAALDWAVPADARVGGHDVTAVGAGSARTAKATVTVRSATTTTLAIAPAAPAVGKAVTLTATVAGPDTAGTVTFADGSTVLGRVAVKDGRAALVVSGGFDAGTHTLTAAFGQTATAEGSVSPAVTFTLVKGKTTTVFVLAATRTTYGTAVAGRIVVGGADGGVATITVGNVVRSVRLDAHGAGSFTVPGTLKPATYRVTASYAGSRTLDTSSARASLTVLKAAPKVTLSAPATARKGATVTVTVKVVGVKGGVRPTGKAVVKLGGKAVKTVSVPSSGVVKVKVRLASAGTAKVTAAYQGSAYYTAASAAAKVKVKVVTK
B1: the Amount of generated ammonia in [2] is 2.23 mM; in data set [3] it was 0.73 mM; in data set [4], 0.04 mM; in [5], 2.98 mM; in data set [6] it was 1.17 mM; in data set [7] it was 1.84 mM. The Amount of generated ammonia was 0.41 mM in data set [8]; 0.98 mM in data set [9]; 1.27 mM in data set [10]; 1.22 mM in data set [11]; 0.01 mM in [12]; 4.69 mM in [13]. Further, the released ammonia amount (0.68 U/ml enzyme solution) in [14] came out at 1 mM. The released ammonia amount (2.7 U/ml enzyme solution) in data set [14] amounted to 1.3 mM.

B2: protein asparaginase of Leifsonia xyli AJ111071 (NITE P-01649) (protein)
chain: LPVRRRIALTVAAALIPVVALTTAPAALAAPAPDPVVASGSDWAVTTSPGGYLVTLDLDEPLPMVDDAPTLVVDGEPIGLATESADGLTLGVVTTDPAVASASSVTKGWSSGADDKAAETPEAPATPAVPENTTLTEQLKSFAQLVAVEDPADLGSYTVTEAEYDFGDQAVPLAAIGGIRGELTGKMYLTNATGARPTVVLLHGRHTSCSGTGANPLRWPCGPTQMNIRSYLGYEGTARALASRGYNVLSIAANAVNSNDNQLALDYGAQARGRLVLDTLGMLAKATAGDAVAYDDITTATDTVPSTTTTRTLDEALLRATTRADQPAAASGITAASLKGRFDLGHVGIMGHSRGGEGVVSAATLNQALAKPYGIESVLPLAPVDFGRMTLPDVPTAVFLPYCDGDVSNQQGQHFIDDSRHAFDDDVLRSAVWVMGANHNFFNTVWTPGLYPAATGDDWRTTDTTSTCATTNPTRMTAAQQYQVGVSYMTGFFRLTMGGETRFQSLFDGSVKPSTASTAYADVRTMATQPASKTSLVNDFTETSSLVRVSGGATAAVCTNLTGRTVPQSLPFCATTKASAQVPHWTPGSFAPNVPEFPVTRFLWTGASTTDPAVPSTGELRVTVPAKDRDASRHSQLTLKTAPDEAVQTGTDFRITVVDGAGKTFATTASAVNPLAVNRMPGGTNTTLNKVVLQQLTIPTSTITGIDLTDVREVRLTAAIGADGTGTGGVYLSDLAFDTPSVGTAVAQTRTTVNVAPTTVEEGDGPGTADVAVYLNRAEKSAVTAYVSVIGSATAAVGIGMEKVAFAPGETCKAVTVPTLGNTATSAAPSSAFKVSVTNSTNAVMGASAFANLTVREDDGVTGAAPALAPVGAQGDVCTELAAATTPVPLETSAEDVAPGGSFTLRATGYRAGETVAFRYGATDLGTQVAATDGTASVVVTVPEDADLGPAEATASGSGSGRAATVSVSVLAPTETTVTVTPAKPTAGQ
For B2, in data set [15], the “N-terminus sequence of the insulin B chain after 8 h reaction (protein sequencer)” value is “asparagine of the third residue from the N-terminus of the insulin B chain was converted into aspartic acid by deamidation”.
